Assay results as given in article PMC6589784.
Read-outs that look alike come from different tables or passages of the source.

Legend:
[1] = molecular target: Mg-ATP-actin (skeletal muscle actin, assembled into filaments) (rabbit or chicken) (UniProt P68135); experiment: single-molecule two-color TIRFM
[2] = molecular target: Mg-ATP-actin (skeletal muscle actin, assembled into filaments) (rabbit or chicken) (UniProt P68135); experiment: single-molecule two-color TIRFM; remark: listed apart in the source
[3] = molecular target: Mg-ATP-actin (skeletal muscle actin, assembled into filaments) (rabbit or chicken) (UniProt P68135); experiment: single-molecule two-color TIRFM; remark: listed apart in the source
[4] = molecular target: Mg-ATP-actin (skeletal muscle actin, assembled into filaments) (rabbit or chicken) (UniProt P68135); experiment: single-color TIRFM of actin elongation rates
[5] = molecular target: Mg-ATP-actin (skeletal muscle actin, assembled into filaments) (rabbit or chicken) (UniProt P68135); experiment: bulk seeded pyrene actin assembly

In the case of “SNAP(549)-VASP (from UniProt P50552 1-380) (natural protein)”, the average residence time tau, single filament barbed ends [1] is reported as 1 s and the processive run length tau, trailing barbed ends of 2-filament fascin bundles [1] is reported as 2.6 s.
“SNAP(549)-EnaΔL (from UniProt Q8T4F7 1-980) (natural protein)” showed an average processive run length tau, leading barbed ends [2] of 10.1 s, an average processive run length tau, trailing barbed ends [2] of 28.1 s and an average residence time tau, single filament barbed ends [3] of 8.9 s. For the same substance, the average residence time tau, trailing barbed ends of a two-filament bundle [3] was 16.8 s, the average processive run length tau, leading barbed ends [1] was 8.4 s and the average processive run length tau, trailing barbed ends [1] was 23.7 s. The average residence time tau, single filament barbed ends [1] was 10 s and the average residence time tau, trailing barbed ends of a two-filament bundle [1] was 21.7 s.
MBP-SNAP(549)-EnaΔLΔCC-Foldon gave a processive run length tau, 2-filament trailing barbed ends [1] of 8.9 s and a processive run length tau, 3- or more filament trailing barbed ends [1] of 11.2 s.
Substance unlabeled UNC-34 (natural protein) has a Kd [4] of 6.7 nM and a Kd [5] of 10.2 nM.
MBP-SNAP(549)-EnaΔLΔCC-GCN4 gave a processive run length tau, 2-filament trailing barbed ends [1] of 1.5 s.
With SNAP(549)-UNC-34 (natural protein) the average residence time tau, single filament barbed ends [1] was 1.2 s and the processive run length tau, trailing barbed ends of 2-filament fascin bundles [1] was 2.9 s.
“unlabeled VASP (from UniProt P50552 1-380) (natural protein)” was tested, and the Kd [4] was 12.2 nM and the Kd [5] was 10.8 nM.
Substance “unlabeled EnaΔL (from UniProt Q8T4F7 1-980) (natural protein)” has a Kd [4] of 3.2 nM and a Kd [5] of 0.7 nM.
